Consider 1 molecule from US20050118729A1 (published 2005).

This assay addresses T1, α4β1 integrin expressed on Jurkat cells (human, UniProt P13612 34-1032; P05556 21-798).
T1 construct: whole, on cells; Cells labeled with a fluorescent dye (Cyto 82); also called receptor recognizing the CS1 peptide
Briefly: cell adhesion of labeled Jurkat cells on microarray.

T1 sequence (P13612 34-1032, chain 1 of 2): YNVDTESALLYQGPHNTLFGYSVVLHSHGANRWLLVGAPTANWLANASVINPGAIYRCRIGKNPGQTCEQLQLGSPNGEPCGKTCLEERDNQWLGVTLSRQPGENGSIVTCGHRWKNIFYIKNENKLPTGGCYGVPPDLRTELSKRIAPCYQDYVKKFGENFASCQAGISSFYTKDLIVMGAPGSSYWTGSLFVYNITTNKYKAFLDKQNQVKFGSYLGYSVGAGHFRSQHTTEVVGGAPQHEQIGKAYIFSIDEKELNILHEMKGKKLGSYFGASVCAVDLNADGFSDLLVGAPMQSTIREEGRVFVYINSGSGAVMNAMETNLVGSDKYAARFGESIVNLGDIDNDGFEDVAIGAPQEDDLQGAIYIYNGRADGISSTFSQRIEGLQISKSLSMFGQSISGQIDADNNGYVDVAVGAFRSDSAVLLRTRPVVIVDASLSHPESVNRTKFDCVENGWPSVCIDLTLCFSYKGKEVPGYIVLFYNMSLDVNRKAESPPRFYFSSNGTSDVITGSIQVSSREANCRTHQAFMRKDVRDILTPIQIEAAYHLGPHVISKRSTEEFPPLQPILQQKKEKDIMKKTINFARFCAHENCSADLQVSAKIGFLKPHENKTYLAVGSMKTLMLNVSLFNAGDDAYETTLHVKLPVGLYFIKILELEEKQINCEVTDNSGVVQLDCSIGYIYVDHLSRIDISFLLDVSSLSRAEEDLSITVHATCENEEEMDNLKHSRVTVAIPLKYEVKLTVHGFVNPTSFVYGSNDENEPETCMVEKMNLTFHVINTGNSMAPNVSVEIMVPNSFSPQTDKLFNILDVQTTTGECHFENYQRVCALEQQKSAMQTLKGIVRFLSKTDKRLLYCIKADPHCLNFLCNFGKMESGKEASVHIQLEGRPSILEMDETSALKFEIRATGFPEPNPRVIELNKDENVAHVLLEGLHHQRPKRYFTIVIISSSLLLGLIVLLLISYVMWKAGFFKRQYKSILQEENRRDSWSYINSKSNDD
T1 sequence (P05556 21-798, chain 2 of 2): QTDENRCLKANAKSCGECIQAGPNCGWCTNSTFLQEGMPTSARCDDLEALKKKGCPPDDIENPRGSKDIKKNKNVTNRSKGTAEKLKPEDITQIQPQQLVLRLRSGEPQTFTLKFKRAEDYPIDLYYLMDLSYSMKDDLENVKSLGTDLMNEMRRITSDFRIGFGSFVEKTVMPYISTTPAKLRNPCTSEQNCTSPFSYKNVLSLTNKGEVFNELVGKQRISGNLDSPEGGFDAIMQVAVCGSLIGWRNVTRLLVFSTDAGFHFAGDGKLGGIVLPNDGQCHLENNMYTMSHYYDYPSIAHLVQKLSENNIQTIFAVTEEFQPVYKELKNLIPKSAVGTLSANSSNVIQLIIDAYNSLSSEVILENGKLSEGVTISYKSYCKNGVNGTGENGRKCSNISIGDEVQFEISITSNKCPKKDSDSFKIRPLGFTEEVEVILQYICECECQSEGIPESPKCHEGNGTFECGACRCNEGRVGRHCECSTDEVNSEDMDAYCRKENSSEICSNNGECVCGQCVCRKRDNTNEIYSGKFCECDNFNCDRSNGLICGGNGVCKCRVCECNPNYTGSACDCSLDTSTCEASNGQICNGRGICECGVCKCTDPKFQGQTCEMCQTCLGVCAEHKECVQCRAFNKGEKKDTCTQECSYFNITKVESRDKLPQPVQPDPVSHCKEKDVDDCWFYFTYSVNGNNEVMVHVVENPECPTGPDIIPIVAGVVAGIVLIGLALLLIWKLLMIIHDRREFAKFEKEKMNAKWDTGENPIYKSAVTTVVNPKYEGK
Procedure: Jurkat T-cells, a human leukemia line, were grown under the appropriate growing conditions. Shortly before the adherence assay, cells were washed with 5 mM EDTA in Tris-buffered saline (TBS, 10 mM Tris-HCl, pH 7.4, 150 mM NaCl) and then incubated with Cyto 82 (2 μM final concentration) for 30 min under continuous agitation. Labeled cells were washed twice with the same buffer and applied directly on the fabricated microarray slides.
The model of interaction chosen for this purpose was α4β1-CS1-interaction model. α4β1 is an integrin expressed by several types of adherent cells and can mediate cell matrix contact trough the known ligand fibronectin. […] The slides were washed extensively and the interaction was scanned by the microarray scanner (FIG. 10).

B1: recombinant protein comprising the cellulose binding region of SEQ ID NO 4 (cellulose binding recombinant protein of Example 1) (other)
chain: NATPTKGATPTNTATPTKSATATPTRPSVPTNTPTNTPANTPVSGNLKVEFYNSNPSDTTNSINPQFKVTNTGSSAIDLSKLTLRYYYTVDGQKDQTFWCDHAAIIGSNGSYNGITSNVKGTFVKMSSSTNNADTYLEISFTGGTLEPGAHVQIQGRFAKNDWSNYTQSNDYSFKSASQFVEWDQVTAYLNGVLVWGKEPGGSVVPSTQPVTTPPATTKPPATTKPPATTIPPSDDPNA
As for B1, the binding result is reported as “no binding (tested: highest array concentration)”.
